Experimental data published in patent publication US20230192896A1 (BIOVERATIV THERAPEUTICS, published 2023).
Changes are numbered by the printed parent chain.

B1: BIIB-9-3595 (antibody, V domains shown)
VH: EVQLVESGGGLVKPGGSLRLSCAASGFTFSSYSMNWVRQAPGKGLEWVSSISSSSSYIYYADSVKGRFTISRDNAKNSLYLQMNSLRAEDTAVYYCARDLGGYAGYYGMDVWGQGTTVTVSS
VL: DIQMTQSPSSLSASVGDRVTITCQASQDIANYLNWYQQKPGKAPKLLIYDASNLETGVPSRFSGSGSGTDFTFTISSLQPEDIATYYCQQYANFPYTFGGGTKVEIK
B2: BIIB-9-3649 (antibody, V domains shown)
VH: B1 VH with S33G, N35A, S50G, L100V
VL: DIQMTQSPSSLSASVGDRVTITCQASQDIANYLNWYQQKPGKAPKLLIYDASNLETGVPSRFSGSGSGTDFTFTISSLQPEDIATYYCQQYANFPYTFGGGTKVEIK
B3: BIIB-9-3601 (antibody, V domains shown)
VH: B1 VH with Y32F, S54A, S55G, L100V
VL: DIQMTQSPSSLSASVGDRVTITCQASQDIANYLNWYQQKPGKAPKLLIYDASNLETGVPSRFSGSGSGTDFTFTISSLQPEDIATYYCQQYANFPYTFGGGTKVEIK
B4: BIIB-9-3650 (antibody, V domains shown)
VH: B1 VH with K13Q, S30G, S33E, S50A, S53A, Y57T, L100V
VL: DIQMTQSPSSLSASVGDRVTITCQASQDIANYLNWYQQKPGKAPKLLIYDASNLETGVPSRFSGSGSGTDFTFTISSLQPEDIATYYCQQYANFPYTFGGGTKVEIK
B5: BIIB-9-3766 (antibody, V domains shown)
VH: B1 VH with S30G, S33D, S54G, S55E, D62E, L100V
VL: DIQMTQSPSSLSASVGDRVTITCEASEDISNYLNWYQQKPGKAPKLLIYDASNLQYGVPSRFSGSGSGTDFTFTISSLQPEDIATYYCSQYANFPYTFGGGTKVEIK
B6: BIIB-9-3647 (antibody, V domains shown)
VH: B1 VH with S33G, N35V, S54A, L100V
VL: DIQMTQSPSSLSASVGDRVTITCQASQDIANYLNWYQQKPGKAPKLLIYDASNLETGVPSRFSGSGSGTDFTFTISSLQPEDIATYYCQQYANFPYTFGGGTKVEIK
B7: BIIB-9-3617 (antibody, V domains shown)
VH: B1 VH with N35T, S55G, S56T, L100V
VL: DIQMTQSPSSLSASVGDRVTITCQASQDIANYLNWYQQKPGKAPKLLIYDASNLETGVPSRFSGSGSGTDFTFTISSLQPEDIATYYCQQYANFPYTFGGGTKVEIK
B8: BIIB-9-3621 (antibody, V domains shown)
VH: B1 VH with S30G, N35A, S50G, S56G, L100V
VL: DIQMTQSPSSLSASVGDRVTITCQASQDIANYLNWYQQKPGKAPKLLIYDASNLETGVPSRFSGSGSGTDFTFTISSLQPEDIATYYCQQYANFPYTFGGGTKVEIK
B9: BIIB-9-3604 (antibody, V domains shown)
VH: B1 VH with S33D, N35V, S54G, S55D, L100V
VL: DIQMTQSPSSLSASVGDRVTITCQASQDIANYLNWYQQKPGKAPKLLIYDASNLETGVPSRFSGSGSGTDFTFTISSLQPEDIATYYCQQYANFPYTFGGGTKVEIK
B10: BIIB-9-3754 (antibody, V domains shown)
VH: B1 VH with S30G, S33D, S54G, S55E, D62E, L100V, Y106F
VL: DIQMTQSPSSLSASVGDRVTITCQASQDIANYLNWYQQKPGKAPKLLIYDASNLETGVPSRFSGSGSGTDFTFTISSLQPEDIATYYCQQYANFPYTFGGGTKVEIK
B11: BIIB-9-3618 (antibody, V domains shown)
VH: B1 VH with L18M, S33E, N35V, S50Y, S54G, L100V
VL: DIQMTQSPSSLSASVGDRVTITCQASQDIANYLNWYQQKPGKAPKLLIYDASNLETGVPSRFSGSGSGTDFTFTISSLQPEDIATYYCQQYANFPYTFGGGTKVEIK
B12: BIIB-9-3654 (antibody, V domains shown)
VH: B1 VH with S30E, S50G, S54A, L100V
VL: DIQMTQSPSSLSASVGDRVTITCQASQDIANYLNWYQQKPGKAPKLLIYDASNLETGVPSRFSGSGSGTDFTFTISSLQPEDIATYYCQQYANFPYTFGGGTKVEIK
B13: BIIB-9-3753 (antibody, V domains shown)
VH: B1 VH with S30G, S33D, S53D, S55A, Y59A, L100V, G101S
VL: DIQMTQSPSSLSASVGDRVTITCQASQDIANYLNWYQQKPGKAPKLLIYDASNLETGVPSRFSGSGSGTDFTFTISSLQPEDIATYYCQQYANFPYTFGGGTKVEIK
B14: BIIB-9-3756 (antibody, V domains shown)
VH: B1 VH with S30G, S33D, S54G, S55E, D62E, A97V, L100V
VL: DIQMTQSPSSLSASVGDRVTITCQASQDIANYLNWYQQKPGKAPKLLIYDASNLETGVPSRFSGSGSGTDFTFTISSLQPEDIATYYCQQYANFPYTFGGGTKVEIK
B15: BIIB-9-3675 (antibody, V domains shown)
VH: QLQLQESGPGLVKPSETLSLTCTVSGGSISSTSYYWVWIRQPPGKGLEWIGSITASGSTYYNPSLKSRVTISVDTSKNQFSLKLSSVTAADTAVYYCARDKYQDYSFDIWGQGTMVTVSS
VL: DIQMTQSPSSVSASVGDRVTITCRASQGIDSWLAWYQQKPGKAPKLLIYAASSLQSGVPSRFSGSGSGTDFTLTISSLQPEDFATYYCQQANFLPFTFGGGTKVEIK
notes: daughter of BIIB-9-578
B16: BIIB-9-3684 (antibody, V domains shown)
VH: B15 VH with T32V, V37N, A55Y, Y60Q
VL: B15 VL
notes: daughter of BIIB-9-578
B17: BIIB-9-3681 (antibody, V domains shown)
VH: B15 VH with T32G, V37N, T54Q, A55P
VL: B15 VL
notes: daughter of BIIB-9-578
B18: BIIB-9-3698 (antibody, V domains shown)
VH: B15 VH with S30A, T32S, V37S, T54R, A55G
VL: B15 VL
notes: daughter of BIIB-9-578

Molecular target: T1, free FIXa (activated Factor IX) (human, UniProt P00740 47-191; P00740 227-461)
T1 construct: BLI antigen bought from Haematologic Technologies (HCIXA-0050); also called factor IXa
Assay: yeast display selection and BLI as in Examples 1 and 5

Binding result, binds:
B1, B2, B3, B4, B5, B6, B7, B8, B9, B10, B11, B12, B13, B14, B15, B16, B17, B18
